# Results taken from publication PMC3804511.
# T1: GST-Kic1(1-359)-His6 (wild type) (S. cerevisiae) (UniProt P38692)
# T1 sequence: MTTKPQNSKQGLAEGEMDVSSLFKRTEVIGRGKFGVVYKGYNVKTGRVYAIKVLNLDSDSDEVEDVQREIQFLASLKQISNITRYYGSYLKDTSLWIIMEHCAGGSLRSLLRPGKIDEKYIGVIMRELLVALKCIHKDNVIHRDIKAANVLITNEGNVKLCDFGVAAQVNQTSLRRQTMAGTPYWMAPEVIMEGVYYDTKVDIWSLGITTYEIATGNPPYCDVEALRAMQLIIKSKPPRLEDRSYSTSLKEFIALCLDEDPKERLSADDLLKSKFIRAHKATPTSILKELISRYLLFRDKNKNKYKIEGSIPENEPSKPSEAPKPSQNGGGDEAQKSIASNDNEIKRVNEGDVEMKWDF
# Legend:
# [1] = biological target: T1, GST-Kic1(1-359)-His6 (wild type) (S. cerevisiae)
# [2] = biological target: T1, GST-Kic1(1-359)-His6 (wild type) (S. cerevisiae); remark: listed apart in the source
binder,measurement,setting,value
"Hym1-His6 (full length, GST cleaved) (natural protein) MFKKYKNQDLDMAFWWKKNPKTPSDYARLIIEQLNKFSSPSLTQDNKRKVQEECTKYLIGTKHFIVGDTDPHPTPEAIDELYTAMHRADVFYELLLHFVDLEFEARRECMLIFSICLGYSKDNKFVTVDYLVSQPKTISLMLRTAEVALQQKGCQDIFLTVGNMIIECIKYEQLCRIILKDPQLWKFFEFAKLGNFEISTESLQILSAAFTAHPKLVSKEFFSNEINIIRFIKCINKLMAHGSYVTKRQSTKLLASLIVIRSNNALMNIYINSPENLKLIMTLMTDKSKNLQLEAFNVFKVMVANPRKSKPVFDILVKNRDKLLTYFKTFGLDSQDSTFLDEREFIVQEIDSLPRIISSTTEVSNNNASSSNVASITSPSSVMNNQSSILTHSTSPDSR",Kic1 kinase activity (reaction rate over 15 min on GST-Cbk1(673-756)-His6) with Hym1 relative to without Hym1,[1],> 5 fold
same,"half maximal activation (Kact) of Kic1 kinase activity (32P transferred to GST-Cbk1(673-756)-His6); Hym1 in 2-fold serial dilutions from 13 µM, Kic1 constant at 0.5 µM",[2],2 µM
